The source of these data is the supplement of paper PMC10126150.

± gives the standard deviation of the averaged measurements.

The subject of the data set is ATP. Briefly: switch fluorescence ratio, 500 uM ATP over buffer (Cy3 cluster intensity, sum of 5 cycles each) (fold (ratio)); higher = stronger signal-on switching upon ATP binding; sequences stand for … in TCGTCGGCAGCGTCAGATGTGTATAAGAGACAGTTTTTTTTTTTTTTTTTTTTTTTTT…TC. As to conditions: aptamer strand: ATP DNA aptamer (quencher-CACCTGGGGGAGTATTGCGGAGGAAGG + anchor), 100 nM annealed; ATP concentration: 500 uM. The procedure, abridged: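 Clusters with intensities outside 100-1000 RFU were excluded. The remaining Cy3-labelled switching-strand clusters on a modified Illumina MiSeq flow-cell had been annealed to 100 nM quencher-labelled ATP aptamer and imaged in selection buffer, then after 15 min with 500 uM ATP at 22 °C, for five cycles separated by NaOH stripping and re-annealing. The fluorescence ratio, averaged per switch-domain sequence, is each cluster's summed target-cycle Cy3 intensity over its summed buffer-cycle Cy3 intensity.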
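Also: ATP exposure 15 min at 22 °C before imaging.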

As for AAGTGAATAA, the switch fluorescence ratio amounted to 0.998 ± 0.017.
Regarding CAAGGATTAA, the switch fluorescence ratio was determined as 1.006 ± 0.0012.
Regarding TTTTGTTTAG, the switch fluorescence ratio is 0.992 ± 0.021.
In the case of CTTGGTCTGA it was 0.994 ± 0.024; in that of TTTAGCGTCA, 0.9891 ± 0.0056; in that of ATTTGTATGT, 0.963 ± 0.013.
The result for AAACAGCCGG reads 1.03 ± 0.0074; that for ATTCATAGGC, 1 ± 0.052; that for TTGTGGTCGC, 0.97 ± 0.024.
In the case of GATCAATGGG it was 0.997 ± 0.036; in that of GTGGGATTTT, 0.986 ± 0.062.
Turning to TGCAAGTGAA, the switch fluorescence ratio was determined as 0.997 ± 0.053.
Turning to AGTCTGAGAC, the switch fluorescence ratio came out at 1.013 ± 0.0089.
For the sequence TGATGATTTC, the switch fluorescence ratio turned out to be 1.009 ± 0.009.
In the case of TTTTTTTTGA it was 0.998 ± 0.017; in that of AACTTTTGCT, 1.03 ± 0.066; in that of CGCGGTGCGG, 1.005 ± 0.0076.
In the case of GAGGGAAATG, the switch fluorescence ratio was determined as 0.997 ± 0.098.
The result for AGAGAGGACG reads 1.02 ± 0.033; that for TATTTAAGGG, 1.12 ± 0.16; that for TTGGTGGGTG, 1.01 ± 0.045.
In the case of GTTAGTATAT it was 1 ± 0.018.
In the case of CGGGTGGCGG it was 0.994 ± 0.012; in that of CACTATGGGA, 1.02 ± 0.027.
For GCTAAGGGGC, the switch fluorescence ratio is 1.03 ± 0.018.
The result for ATAGATGGTG reads 0.987 ± 0.025; that for TGCAGCATGA, 1.333 ± 0.008.
In the case of AGGTCGTCGT, the switch fluorescence ratio was 0.955 ± 0.017.
Take GGGTTAGCTT: the switch fluorescence ratio stood at 0.98 ± 0.031.
The result for CTTGAGGGGG reads 1.04 ± 0.092.
In the case of CAGGGGGTCA it was 0.982 ± 0.015; in that of TGGTGTGTTT, 0.978 ± 0.035; in that of ATTTATTTCT, 1.03 ± 0.064.
In the case of AGCGCCTTTG it was 0.9905 ± 0.0024; in that of TTTGAATATA, 0.985 ± 0.022.
Consider CGACCTTTTC, for which the switch fluorescence ratio is 1.4 ± 0.34.
In the case of GGTTGTTTCT it was 0.997 ± 0.0057.
The result for TTGTTGTGTG reads 0.973 ± 0.033; that for CGAATCGGCT, 1.05 ± 0.054; that for AACGTGTGGG, 0.996 ± 0.1.
The result for GATATTAATT reads 0.9784 ± 0.0031; that for GAAGTGGGGT, 0.995 ± 0.015.
Regarding GGGGAGGAAT, the switch fluorescence ratio amounted to 0.971 ± 0.024.
The result for TTCTTCATAG reads 1.02 ± 0.015; that for TGAATGACGT, 0.972 ± 0.04.
In the case of TCTGGCCGGC it was 0.986 ± 0.028; in that of CAAGGTGGTC, 0.995 ± 0.029.
The result for TGGTGTATGC reads 1.03 ± 0.059; that for CAGGATTAAA, 0.959 ± 0.029.
As to ATGTGGTTAC, the switch fluorescence ratio is 1.01 ± 0.048.
Regarding TTTGAGTGCT, the switch fluorescence ratio amounted to 0.997 ± 0.029.
Take GTGTTAATGA: the switch fluorescence ratio was found to be 0.967 ± 0.019.
The result for AATAATCGGC reads 0.994 ± 0.06; that for GTTAGAGAGC, 1.06 ± 0.0068; that for TCGGGAACGC, 1.04 ± 0.032.
In the case of ATCGGGTCGG it was 1.01 ± 0.03; in that of GGGGTAGTTA, 0.9743 ± 0.0066.
The result for AGTCAAAGGA reads 1.012 ± 0.0051; that for TTGAATGAGG, 0.95006 ± 0.00095.
Turning to TACGGGCGGA, the switch fluorescence ratio turned out to be 1.02 ± 0.034.
In the case of TTGGTAAGAC it was 1.14 ± 0.12.
The result for ACAAGAGATA reads 1.01 ± 0.015.
As for TACGGGGGAT, the switch fluorescence ratio worked out at 1.02 ± 0.054.
On to GCTTCAAGAC, for which the switch fluorescence ratio is 1.58 ± 0.0071.
In the case of TAGTTAATCA it was 0.991 ± 0.01; in that of AGCATGGCTG, 1.01 ± 0.001.
The result for TTTACAGTTG reads 0.96 ± 0.014.
The result for AGGCCAGGGT reads 1.04 ± 0.021; that for ATTTAAGGCT, 0.99 ± 0.012; that for GGGTAGGCGG, 0.941 ± 0.029.
Regarding ATGGTCAGGT, the switch fluorescence ratio stood at 1.01 ± 0.019.
The result for GCTAAAGGGA reads 1.03 ± 0.042.
The result for GCGCGTGGAG reads 1.04 ± 0.03; that for TTTACTTGTG, 1.01 ± 0.035; that for CGGTGGGGCA, 1.1 ± 0.13.
The result for TCTTTTGGGC reads 1.02 ± 0.076; that for ATTAGTCTAT, 0.988 ± 0.036; that for TTTAAATAAA, 1 ± 0.017.
For the sequence ACTCACTGGT, the switch fluorescence ratio was found to be 1.23 ± 0.043.
In the case of GACCCGTCAG it was 1.01 ± 0.013; in that of GGGGGTAGGG, 1.03 ± 0.073.
Regarding ATAAGGAGGA, the switch fluorescence ratio was found to be 1.1 ± 0.23.
In the case of GCTTGGGTGC it was 1.04 ± 0.067; in that of ATAGCGGAGA, 1 ± 0.036; in that of AGTAACGCTT, 1.008 ± 0.01.
With ATTTTGGCAA, the switch fluorescence ratio came out at 1.42 ± 0.3.
In the case of ATAACGAGTC it was 1.04 ± 0.15; in that of ACAGTTGTTA, 0.98717 ± 0.00059.
The result for GTCAATTGGA reads 0.992 ± 0.013; that for TGGGGAATTG, 0.969 ± 0.053.
For GCGTAAAATT, the switch fluorescence ratio came out at 0.9737 ± 0.0057.
For TGATGGCATT, the switch fluorescence ratio worked out at 0.9893 ± 0.0071.
The result for TGGTATGTGA reads 1.01 ± 0.032; that for AGGGTGCTCG, 1.02 ± 0.047; that for GATACATGTG, 1.048 ± 0.0086.
The result for CGGAAAGCAG reads 1.02 ± 0.028.
The result for CCGTGCGAAA reads 2.99 ± 0.59.
As for TTAGGATAAT, the switch fluorescence ratio amounted to 1.031 ± 0.0072.
Consider TACTTTGCTC, for which the switch fluorescence ratio is 1.03 ± 0.016.
The result for GTTGAGTAGG reads 0.994 ± 0.012.
The result for TAGGGAGAAA reads 1.46 ± 0.64.
The result for AAGTGAGCAG reads 1.012 ± 0.0072; that for AGTTAGGAAA, 1.02 ± 0.032.
For TTCGAAACGA, the switch fluorescence ratio came to 1.1 ± 0.14.
With AAGAACTATG, the switch fluorescence ratio was found to be 1.02 ± 0.034.
With TGGAGGAGCG, the switch fluorescence ratio is 0.955 ± 0.036.
The result for TAGTTAATTG reads 0.987 ± 0.067; that for TTGCTTCGTT, 1.02 ± 0.029; that for GGGTGATCGT, 0.997 ± 0.013.
The result for AATCAGGGTG reads 1.16 ± 0.01.
The result for AACTTTGTGC reads 1 ± 0.055; that for CTATTAATAC, 1.63 ± 0.096.
Consider TCGGATTAAT, for which the switch fluorescence ratio was found to be 1.05 ± 0.043.
With GGGGACGGGA, the switch fluorescence ratio came to 0.989 ± 0.024.
In the case of TTGGTGGTCC it was 0.999 ± 0.012; in that of GGAAGAATAG, 1.02 ± 0.038; in that of CTTGCGTCAC, 1.18 ± 0.044.
For GGGTGTTCGG, the switch fluorescence ratio came to 0.979 ± 0.017.
Turning to GAAGGGGGAC, the switch fluorescence ratio came out at 1.01 ± 0.046.
The result for CAGGTATAAG reads 1.01 ± 0.061.
